In article PMC13098475:

Target: traptavidin (streptavidin-variant), expressed and purified by IMAC (Streptomyces avidinii) (UniProt P22629)
Experiment: native MS; native electrospray ionization mass spectrometry of the IMAC-purified proteins; oligomeric state of the protomers (tetramer), no cross-linker

“traptavidin (streptavidin-variant), expressed and purified by IMAC (from UniProt P22629 25-183) (natural protein)” was tested, and the percent of the protein that is tetrameric was 95% and the stoichiometry N was 4.
